Molecular target: T1, CasEnd-14 (synthetic construct)
T1 chain: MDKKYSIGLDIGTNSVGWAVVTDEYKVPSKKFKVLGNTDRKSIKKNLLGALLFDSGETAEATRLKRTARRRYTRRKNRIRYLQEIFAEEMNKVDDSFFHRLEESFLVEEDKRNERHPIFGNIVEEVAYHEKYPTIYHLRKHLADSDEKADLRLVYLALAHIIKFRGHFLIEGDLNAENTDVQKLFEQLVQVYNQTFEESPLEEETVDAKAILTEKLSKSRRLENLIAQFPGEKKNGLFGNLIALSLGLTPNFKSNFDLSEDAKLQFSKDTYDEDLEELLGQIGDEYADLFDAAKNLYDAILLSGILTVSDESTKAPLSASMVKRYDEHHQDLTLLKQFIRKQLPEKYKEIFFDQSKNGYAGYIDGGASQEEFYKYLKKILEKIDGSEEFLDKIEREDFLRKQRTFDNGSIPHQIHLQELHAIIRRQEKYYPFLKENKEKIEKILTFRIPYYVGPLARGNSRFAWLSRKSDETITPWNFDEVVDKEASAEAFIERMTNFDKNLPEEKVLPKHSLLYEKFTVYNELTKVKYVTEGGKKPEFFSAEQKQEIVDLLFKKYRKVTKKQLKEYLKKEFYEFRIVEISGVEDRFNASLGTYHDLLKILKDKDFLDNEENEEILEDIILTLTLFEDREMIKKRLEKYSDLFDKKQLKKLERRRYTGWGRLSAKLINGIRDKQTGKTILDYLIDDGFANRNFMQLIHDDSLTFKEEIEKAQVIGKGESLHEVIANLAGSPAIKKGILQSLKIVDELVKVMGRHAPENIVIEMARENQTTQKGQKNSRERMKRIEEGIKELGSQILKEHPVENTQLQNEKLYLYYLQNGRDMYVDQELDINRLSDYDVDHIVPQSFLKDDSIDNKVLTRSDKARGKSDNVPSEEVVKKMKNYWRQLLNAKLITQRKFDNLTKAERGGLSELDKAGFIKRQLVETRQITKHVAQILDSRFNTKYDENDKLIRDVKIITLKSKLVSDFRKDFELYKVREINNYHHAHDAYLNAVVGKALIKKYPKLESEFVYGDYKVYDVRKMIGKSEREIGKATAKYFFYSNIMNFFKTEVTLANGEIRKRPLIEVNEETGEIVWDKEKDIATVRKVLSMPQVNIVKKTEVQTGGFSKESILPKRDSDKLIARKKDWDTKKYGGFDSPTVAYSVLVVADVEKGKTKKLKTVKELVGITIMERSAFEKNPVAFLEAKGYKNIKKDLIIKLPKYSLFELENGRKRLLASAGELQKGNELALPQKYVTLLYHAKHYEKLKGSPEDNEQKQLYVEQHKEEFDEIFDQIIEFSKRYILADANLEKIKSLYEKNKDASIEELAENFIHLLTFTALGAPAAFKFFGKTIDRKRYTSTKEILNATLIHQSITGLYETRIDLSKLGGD
Assay: cell_activity; +++; HEK293T; PAM not stated
Outline: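 Editing activity was scored as the fraction of GFP+ cells on day 4 by flow cytometry. BFP-expressing HEK293T cells (250,000) received by nucleofection 200 ng plasmid for the RT-Cas fusion protein and 200 ng template RNA plasmid designed to convert BFP to GFP.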

B1: BFP-to-GFP template RNA ; BFP reporter protospacer (ssRNA ; dsDNA)
RNA: GCCGAAGCACUGCACGCCGUGUUUUAGAGCUAGAAAUAGCAAGUUAAAAUAAGGCUAGUCCGUUAUCAACUUGAAAAAGUGGCACCGAGUCGGUGCACCCUGACGUACGGCGUGCAGUGCUU
DNA 1: GCCGAAGCACTGCACGCCGT
DNA 2: ACGGCGTGCAGTGCTTCGGC
  activity: ≥ 100 % of reference
